Experimental data published in PMC10202959, “A superior extracellular matrix binding motif to enhance the regenerative activity and safety of therapeutic proteins” (NPJ Regenerative Medicine, 2023).

B1: human fibrinogen (complex)
chain 1: ADSGEGDFLAEGGGVRGPRVVERHQSACKDSDWPFCSDEDWNYKCPSGCRMKGLIDEVNQDFTNRINKLKNSLFEYQKNNKDSHSLTTNIMEILRGDFSSANNRDNTYNRVSEDLRSRIEVLKRKVIEKVQHIQLLQKNVRAQLVDMKRLEVDIDIKIRSCRGSCSRALAREVDLKDYEDQQKQLEQVIAKDLLPSRDRQHLPLIKMKPVPDLVPGNFKSQLQKVPPEWKALTDMPQMRMELERPGGNEITRGGSTSYGTGSETESPRNPSSAGSWNSGSSGPGSTGNRNPGSSGTGGTATWKPGSSGPGSTGSWNSGSSGTGSTGNQNPGSPRPGSTGTWNPGSSERGSAGHWTSESSVSGSTGQWHSESGSFRPDSPGSGNARPNNPDWGTFEEVSGNVSPGTRREYHTEKLVTSKGDKELRTGKEKVTSGSTTTTRRSCSKTVTKTVIGPDGHKEVTKEVVTSEDGSDCPEAMDLGTLSGIGTLDGFRHRHPDEAAFFDTASTGKTFPGFFSPMLGEFVSETESRGSESGIFTNTKESSSHHPGIAEFPSRGKSSSYSKQFTSSTSYNRGDSTFESKSYKMADEAGSEADHEGTHSTKRGHAKSRPV
chain 2: QGVNDNEEGFFSARGHRPLDKKREEAPSLRPAPPPISGGGYRARPAKAAATQKKVERKAPDAGGCLHADPDLGVLCPTGCQLQEALLQQERPIRNSVDELNNNVEAVSQTSSSSFQYMYLLKDLWQKRQKQVKDNENVVNEYSSELEKHQLYIDETVNSNIPTNLRVLRSILENLRSKIQKLESDVSAQMEYCRTPCTVSCNIPVVSGKECEEIIRKGGETSEMYLIQPDSSVKPYRVYCDMNTENGGWTVIQNRQDGSVDFGRKWDPYKQGFGNVATNTDGKNYCGLPGEYWLGNDKISQLTRMGPTELLIEMEDWKGDKVKAHYGGFTVQNEANKYQISVNKYRGTAGNALMDGASQLMGENRTMTIHNGMFFSTYDRDNDGWLTSDPRKQCSKEDGGGWWYNRCHAANPNGRYYWGGQYTWDMAKHGTDDGVVWMNWKGSWYSMRKMSMKIRPFFPQQ
chain 3: YVATRDNCCILDERFGSYCPTTCGIADFLSTYQTKVDKDLQSLEDILHQVENKTSEVKQLIKAIQLTYNPDESSKPNMIDAATLKSRKMLEEIMKYEASILTHDSSIRYLQEIYNSNNQKIVNLKEKVAQLEAQCQEPCKDTVQIHDITGKDCQDIANKGAKQSGLYFIKPLKANQQFLVYCEIDGSGNGWTVFQKRLDGSVDFKKNWIQYKEGFGHLSPTGTTEFWLGNEKIHLISTQSAIPYALRVELEDWNGRTSTADYAMFKVGPEADKYRLTYAYFAGGDAGDAFDGFDFGDDPSDKFFTSHNGMQFSTWDNDNDKFEGNCAEQDGSGWWMNKCHAGHLNGVYYQGGTYSKASTPNGYDNGIIWATWKTRWYSMKKTTMKIIPFNRLTIGEGQQHHLGGAKQAGDV
modifications: Plasma-derived disulfide-linked hexamer (alpha-beta-gamma)2, fibrinopeptides A and B retained, N-glycosylated. Isoforms are not printed: the major plasma forms are taken by convention, i.e. the …

Key:
Details in all cases: both partners purified
[1] = target: T1, human vitronectin (human, UniProt P04004 20-478); assay: ELISA; plates coated with 100 nM PlGF-2, AREG or NRTN (1 h, 37 °C), blocked with 1% BSA in PBS-T; ECM proteins at increasing concentration in PBS-T with 0.1% BSA; bound ECM protein detected with HRP-conjugated antibodies; one site specific binding model; n = 3
T1 construct: vitronectin, human; source: bought: Peprotech

[2] = target: T2, human tenascin C (human, UniProt P24821 23-2201); assay: as above
T2 construct: tenascin C, human; also called Tenacin C; source: bought: R&D Systems

[3] = target: B1; assay: as above
[4] = target: human plasma fibronectin (human); assay: as above
[5] = target: T1, human vitronectin; assay: ELISA; plates coated with 100 nM ECM protein in PBS (1 h, 37 °C), blocked with 1% BSA in PBS-T; PDGF-BB or IL-1Ra variants at increasing concentrations in PBS-T with 0.1% BSA, 1 h at room temperature; detected with biotinylated antibodies; one site specific binding model; n = 3
[6] = target: T2, human tenascin C; assay: as above
[7] = target: B1; assay: as above
Target sequence in this assay (P02671 36-866): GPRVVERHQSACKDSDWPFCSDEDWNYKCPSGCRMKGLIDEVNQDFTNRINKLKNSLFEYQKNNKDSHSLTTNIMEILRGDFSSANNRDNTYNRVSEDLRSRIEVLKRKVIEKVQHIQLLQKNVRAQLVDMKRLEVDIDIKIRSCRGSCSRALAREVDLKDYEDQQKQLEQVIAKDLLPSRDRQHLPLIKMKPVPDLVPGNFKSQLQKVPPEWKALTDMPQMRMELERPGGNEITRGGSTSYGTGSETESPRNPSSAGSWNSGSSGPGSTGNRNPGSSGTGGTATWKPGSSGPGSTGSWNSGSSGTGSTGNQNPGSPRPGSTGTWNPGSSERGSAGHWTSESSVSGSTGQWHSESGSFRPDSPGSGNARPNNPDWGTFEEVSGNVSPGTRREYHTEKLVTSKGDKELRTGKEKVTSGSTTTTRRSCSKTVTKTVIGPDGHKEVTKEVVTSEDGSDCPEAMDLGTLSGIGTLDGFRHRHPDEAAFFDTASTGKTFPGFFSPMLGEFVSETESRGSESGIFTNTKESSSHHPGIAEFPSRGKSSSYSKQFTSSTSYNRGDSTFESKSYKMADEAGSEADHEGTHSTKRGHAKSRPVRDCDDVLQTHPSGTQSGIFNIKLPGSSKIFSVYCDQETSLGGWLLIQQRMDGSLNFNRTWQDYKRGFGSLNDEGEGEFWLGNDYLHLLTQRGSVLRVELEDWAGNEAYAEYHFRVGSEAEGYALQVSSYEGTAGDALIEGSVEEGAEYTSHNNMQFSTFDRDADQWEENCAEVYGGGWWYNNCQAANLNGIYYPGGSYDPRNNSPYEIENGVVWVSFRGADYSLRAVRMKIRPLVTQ

[8] = target: human plasma fibronectin (human); assay: as above
[9] = target: T3, AREG26-38/IL-1Ra (human | ); assay: as above
T3 construct: interleukin-1 receptor antagonist protein; Both the His tag and AREG26-38 are said to stand at the N-terminus; also called AREG126-138/IL-1Ra; engineered IL-1Ra; source: E. coli BL21 (DE3), pET-22b, soluble fraction, purified (Ni column)

[10] = target: T4, AREG26-38/PDGF-BB (human | ); assay: as above
T4 construct: platelet-derived growth factor subunit B; AREG26-38 at the N-terminus of PDGF-B; also called AREG126-138/PDGF-BB; engineered PDGF-BB
T4 sequence (P02671 36-866): as above

T1 sequence (P04004 20-478): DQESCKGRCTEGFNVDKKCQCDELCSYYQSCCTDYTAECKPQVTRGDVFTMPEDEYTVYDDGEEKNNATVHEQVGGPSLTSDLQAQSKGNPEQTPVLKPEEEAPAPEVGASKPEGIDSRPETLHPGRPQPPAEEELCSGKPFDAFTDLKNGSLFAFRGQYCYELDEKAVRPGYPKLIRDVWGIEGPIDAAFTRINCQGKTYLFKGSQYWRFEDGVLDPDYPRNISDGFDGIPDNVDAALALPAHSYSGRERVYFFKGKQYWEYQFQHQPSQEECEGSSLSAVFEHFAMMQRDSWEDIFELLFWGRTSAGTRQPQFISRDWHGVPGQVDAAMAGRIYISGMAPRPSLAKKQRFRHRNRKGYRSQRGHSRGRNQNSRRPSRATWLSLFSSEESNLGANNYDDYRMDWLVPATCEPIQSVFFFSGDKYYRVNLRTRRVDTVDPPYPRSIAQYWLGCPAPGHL
T2 sequence (P24821 23-2201): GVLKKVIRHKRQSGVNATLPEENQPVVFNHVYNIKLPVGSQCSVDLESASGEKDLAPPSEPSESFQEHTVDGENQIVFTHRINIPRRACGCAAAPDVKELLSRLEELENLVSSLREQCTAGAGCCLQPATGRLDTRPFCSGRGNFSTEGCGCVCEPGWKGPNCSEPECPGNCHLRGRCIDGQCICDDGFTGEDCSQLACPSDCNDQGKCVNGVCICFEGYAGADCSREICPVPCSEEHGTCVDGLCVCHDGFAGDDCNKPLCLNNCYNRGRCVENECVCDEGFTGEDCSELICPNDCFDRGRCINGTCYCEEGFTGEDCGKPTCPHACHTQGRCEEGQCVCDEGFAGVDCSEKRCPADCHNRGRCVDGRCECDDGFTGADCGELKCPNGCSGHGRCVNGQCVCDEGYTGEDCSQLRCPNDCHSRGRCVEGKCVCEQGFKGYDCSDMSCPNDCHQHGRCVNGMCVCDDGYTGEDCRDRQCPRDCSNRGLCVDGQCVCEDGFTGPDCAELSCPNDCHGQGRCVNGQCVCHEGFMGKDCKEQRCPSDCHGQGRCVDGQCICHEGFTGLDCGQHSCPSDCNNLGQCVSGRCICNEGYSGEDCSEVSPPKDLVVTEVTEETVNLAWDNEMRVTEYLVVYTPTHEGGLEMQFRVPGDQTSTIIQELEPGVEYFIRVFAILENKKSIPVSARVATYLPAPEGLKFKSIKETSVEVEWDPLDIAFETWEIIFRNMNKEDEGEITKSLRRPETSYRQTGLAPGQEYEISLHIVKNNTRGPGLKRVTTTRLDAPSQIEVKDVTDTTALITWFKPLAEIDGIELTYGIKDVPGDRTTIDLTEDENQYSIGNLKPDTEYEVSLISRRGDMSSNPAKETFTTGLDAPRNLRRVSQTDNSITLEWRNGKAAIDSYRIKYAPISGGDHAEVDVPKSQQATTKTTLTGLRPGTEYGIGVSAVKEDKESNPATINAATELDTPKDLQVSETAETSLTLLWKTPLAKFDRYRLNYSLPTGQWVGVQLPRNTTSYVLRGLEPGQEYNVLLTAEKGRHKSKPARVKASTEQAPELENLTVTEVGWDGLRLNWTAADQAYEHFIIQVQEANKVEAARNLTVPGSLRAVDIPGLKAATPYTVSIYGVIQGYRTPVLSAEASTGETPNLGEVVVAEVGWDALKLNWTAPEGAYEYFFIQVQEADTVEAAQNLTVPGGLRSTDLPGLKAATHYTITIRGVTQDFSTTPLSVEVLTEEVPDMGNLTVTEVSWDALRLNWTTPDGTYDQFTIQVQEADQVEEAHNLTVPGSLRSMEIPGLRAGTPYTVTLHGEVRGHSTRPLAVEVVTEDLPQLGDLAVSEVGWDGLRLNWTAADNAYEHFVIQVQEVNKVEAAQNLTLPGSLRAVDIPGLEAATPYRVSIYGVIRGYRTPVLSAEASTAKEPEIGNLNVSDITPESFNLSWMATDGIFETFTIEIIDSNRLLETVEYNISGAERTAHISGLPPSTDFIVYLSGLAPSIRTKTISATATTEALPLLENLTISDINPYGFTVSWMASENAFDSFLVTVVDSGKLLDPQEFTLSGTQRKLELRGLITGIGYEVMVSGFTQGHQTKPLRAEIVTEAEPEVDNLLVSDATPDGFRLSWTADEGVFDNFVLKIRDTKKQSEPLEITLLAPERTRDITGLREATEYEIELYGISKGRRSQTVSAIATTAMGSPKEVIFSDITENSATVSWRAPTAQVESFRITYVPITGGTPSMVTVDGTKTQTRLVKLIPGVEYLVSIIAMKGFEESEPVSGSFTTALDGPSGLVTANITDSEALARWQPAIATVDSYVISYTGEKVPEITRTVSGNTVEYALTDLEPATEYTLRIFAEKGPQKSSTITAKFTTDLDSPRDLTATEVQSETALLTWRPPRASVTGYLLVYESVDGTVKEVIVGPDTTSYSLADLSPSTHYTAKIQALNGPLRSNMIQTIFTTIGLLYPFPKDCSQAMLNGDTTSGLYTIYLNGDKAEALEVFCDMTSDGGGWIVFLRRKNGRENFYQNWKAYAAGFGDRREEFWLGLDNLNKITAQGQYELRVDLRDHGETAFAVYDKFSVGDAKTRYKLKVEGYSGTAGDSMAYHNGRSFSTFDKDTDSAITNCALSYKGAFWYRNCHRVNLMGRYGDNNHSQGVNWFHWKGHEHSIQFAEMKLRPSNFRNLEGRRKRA
T3 sequence (P02671 36-866): as the sequence (P02671 36-866) above

Binder	Kd [1] [nM]	Kd [2] [nM]	Kd [3] [nM]	Kd [4] [nM]	Kd [5] [nM]	Kd [6] [nM]	Kd [7] [nM]	Kd [8] [nM]	Kd [9] [nM]	Kd [10] [nM]
amphiregulin (natural protein, human, UniProt P15514 101-187, looked up, amphiregulin; it is a soluble form, not the 252 aa precursor (surmise); also called AREG; source: bought: Peprotech (carrier-free recombinant)) SVRVEQVVKPPQNKTESENTSDKPKRKKKGGKNGKNRRNRKKKNPCNAEFQNFCIHGECKYIEHLEAVTCKCQQEYFGERCGEKSMK	9.3	11	7.4	8.9						
interleukin-1 receptor antagonist (wild type) (natural protein, UniProt P25085 27-178, looked up, interleukin-1 receptor antagonist protein; also called IL-1Ra; source: bought: Peprotech) RPSGKRPCKMQAFRIWDTNQKTFYLRNNQLIAGYLQGPNIKLEEKIDMVPIDLHSVFLGIHGGKLCLSCAKSGDDIKLQLEEVNITDLSKNKEEDKRFTFIRSEKGPTTSFESAACPGWFLCTTLEADRPVSLTNTPEEPLIVTKFYFQEDQ					96.5	137	640	153		
placenta growth factor-2 (natural protein, human, UniProt P49763-3 19-170, looked up, placenta growth factor, PlGF-2; also called PlGF; PlGF-2; source: bought: Peprotech (carrier-free recombinant)) LPAVPPQQWALSAGNGSSEVEVVPFQEVWGRSYCRALERLVDVVSEYPSEVEHMFSPSCVSLLRCTGCCGDENLHCVPVETANVTMQLLKIRSGDRPSYVELTFSQHVRCECRPLREKMKPERRRPKGRGKRRREKQRPTDCHLCGDAVPRR	13.2	79.4	14.1	17.2						
B1									16.9	13.9
neurturin (natural protein, human, UniProt Q99748 96-197, looked up, neurturin; also called NRTN; source: bought: Peprotech (carrier-free recombinant)) ARLGARPCGLRELEVRVSELGLGYASDETVLFRYCAGACEAAARVYDLGLRRLRQRRRLRRERVRAQPCCRPTAYEDEVSFLDAHSRYHTVHELSARECACV	53.1	55.7	390	79.4						
platelet-derived growth factor-BB (wild type) (natural protein, UniProt P31240 82-190, looked up, platelet-derived growth factor subunit B; also called PDGF-BB; source: bought: Peprotech) SLGSLAAAEPAVIAECKTRTEVFQISRNLIDRTNANFLVWPPCVEVQRCSGCCNNRNVQCRASQVQMRPVQVRKIEIVRKKPIFKKATVTLEDHLACKCETIVTPRPVT					29.7	87.8	210	74.2		
